# Measurements as given in article PMC10471779 (2023).
# T1: recombinant rat galectin-3 (rat, UniProt P08699 1-262)
# T1 chain: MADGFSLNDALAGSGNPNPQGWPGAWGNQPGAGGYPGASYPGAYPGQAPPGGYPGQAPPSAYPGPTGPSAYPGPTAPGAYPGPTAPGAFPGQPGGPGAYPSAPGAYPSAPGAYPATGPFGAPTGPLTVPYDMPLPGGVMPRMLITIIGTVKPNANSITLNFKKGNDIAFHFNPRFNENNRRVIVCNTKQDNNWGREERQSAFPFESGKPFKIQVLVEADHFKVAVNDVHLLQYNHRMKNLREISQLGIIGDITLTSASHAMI
# T2: recombinant mouse galectin-3, full length, His-tagged (mGal-3-FL-His Nter) (mouse, UniProt P16110 1-264)
# T2 chain: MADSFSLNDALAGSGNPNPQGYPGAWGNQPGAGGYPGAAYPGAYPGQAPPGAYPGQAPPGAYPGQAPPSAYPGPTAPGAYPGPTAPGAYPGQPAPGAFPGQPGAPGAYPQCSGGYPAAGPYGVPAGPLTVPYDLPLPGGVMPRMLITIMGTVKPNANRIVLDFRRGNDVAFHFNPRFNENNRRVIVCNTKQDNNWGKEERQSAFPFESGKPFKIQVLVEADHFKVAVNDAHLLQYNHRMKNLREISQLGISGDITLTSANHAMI
# B1: D11 anti-Gal-3 monoclonal antibody (hIgG1 format, LALA) (antibody, V domains shown)
# VH: EVQLVESGGSLVKPGGSLRLSCAASGFTFSNYNMNWVRQAPGKGLEWISSIYGSSRYIYYADFVKGRFTISRDNAKNSLYLQMNSLRAEDTAVYYCVRSSYGGMDVWGRGTLVTVSS
# VL: QSVLTQPASVSGSPGQSITISCAGTSSDVGGSYNVAWYQQHPGKAPKLMIYYDSYRPSGVSNRFSGSKSGNTASLTISGLQAEDEADYYCSSYTGYSTRVFGGGTKLEIK
# B2: E07 anti-Gal-3 monoclonal antibody (hIgG1 format, LALA) (antibody, V domains shown)
# VH: EVQLVESGGSLVKPGGSLRLSCAASGFTFSNYNMNWVRQAPGKGLEWISNIYGSSRYIYYADFVKGRFTISRDNAKNSLYLQMNSLRAEDTAVYYCVRSYYGGMDVWGRGTLVTVSS
# VL: QSVLTQPASVSGSPGQSITISCAGTSSDVGGYYSVSWYQQHPGKAPKLMIYYDSNRPSGVSNRFSGSKSGNTASLTISGLQAEDEADYYCSSYTGYSTRVFGGGTKLEIK
# How the values were obtained:
# Assay in all cases: SPR
# [1] = target: T1, recombinant rat galectin-3
# [2] = target: recombinant cynomolgus galectin-3 (cynomolgus)
# [3] = target: T2, recombinant mouse galectin-3, full …
Binder,Kd [1],Kd [2],Kd [3]
B1,8.6 nM,11.4 nM,
B2,,7.1 nM,4.1 nM
